{"source": "patent US20250268984A1", "about": "“INTERFERON-BASED CANCER TREATMENT METHOD, AND PHARMACEUTICAL COMBINATION” (XIAMEN AMOYTOP BIOTECH CO., LTD., priority 2021, published 2025)", "molecules": {"B1": {"name": "PEG-mIFN-α4: deglycosylated recombinant mouse interferon α4 modified with 40 kD Y-type polyethylene glycol succinimide ester (YPEG-NHS); SEQ ID NO: 6 (protein)", "chain": "CDLPHTYNLGNKRALTVLEEMRRLPPLSCLKDRKDFGFPLEKVDNQQIQKAQAILVLRDLTQQILNLFTSKDLSATWNATLLDSFCNDLHQQLNDLKACVMQEPPLTQEDSLLAVRTYFHRITVYLRKKKHSLCAWEVIRAEVWRALSSSTNLLARLSEEKE", "modifications": "40 kD Y-type PEG; deglycosylated; peginterferon murine alpha 4"}}, "tested_on": "transplanted liver cancer H22", "experiment": "Example 13: different administration orders of interferon and gemcitabine, transplanted liver cancer H22 in mice", "assay_type": "in vivo, BALB/c mice", "details": "PEG-mIFN-α4 only, 1 microgram per mouse s.c. once a week", "description": "PEG-mIFN-α4 was administered by subcutaneous injection on the back of the neck, with a dose of 1 microgram per mouse. The administration began on the day after grouping. In the PEG-mIFN-α4 only group, PEG-mIFN-α4 was administered once a week. In the PEG-mIFN-α4 combined with gemcitabine (administered at the same time) group, PEG-mIFN-α4 and gemcitabine were administered on the same day, once a week. In the PEG-mIFN-α4 combined with gemcitabine (PEG-mIFN-α4 was administered 72 hours after gemcitabine) group, gemcitabine was given 3 days before PEG-mIFN-α4, once a week. PEG-mIFN-α4 combined with gemcitabine (gemcitabine was given 72 hours after PEG-mIFN-α4) group, PEG-mIFN-α4 was given first, and gemcitabine was given 3 days after, once a week. In the normal saline control group, an equal volume of normal saline was given. Gemcitabine was injected intraperitoneally at a dose of 60 mg/kg.\nSAS 9.4 software was used to compare the differences in tumor incidence between groups, and the statistical tests were all two-sided tests.\nThe tumor incidence of each group was calculated based on the tumor volume greater than or equal to 62.5 mm^, which is determined as positive for tumor occurrence. […] Mice determined to be negative for tumor development were confirmed by dissection, and no solid tumor was found in the axilla. […]"}
{"molecule": "B1", "values": [{"measurement": "Median survival period (time after tumor inoculation, day)", "setting": "by day 151", "result": 38.0, "unit": "days"}, {"measurement": "tumor incidence", "setting": "day 151 after tumor inoculation, tumor volume ≥62.5 positive", "result": 100.0, "unit": "%"}]}
